Reference: US20220220508, “ENGINEERED CASX SYSTEMS” (Scribe Therapeutics Inc., published 2022)

Target: CasX2 (StX2, wild-type reference CasX) (Planctomycetes)
Assay: cleavage_in_vitro; kcleave; TTC PAM
Conditions: tags: N-terminal SV40 NLS, C-terminal NLS, TEV site and twin Strep tag; label: fluorescent
Description: In vitro cleavage assays were performed essentially as described in Example 19, using CasX 2 (SED ID NO:2), CasX 119, and CasX 438 complexed with single guide 174 with spacer 7.37 targeted against B2M. Fluorescently labeled dsDNA targets that would be complementary with a 7.37 spacer and either a ITC, CTC, CTC, or ATC PAM were used (The DNA sequences used to generate each dsDNA substrate are shown in Table 29. The PAM sequences for each are bolded. TS—target strand. NTS—Non-target strand). Target DNA was incubated with a 20-fold excess of the indicated RNP and the amount of cleaved target was determined at the indicated. time points. The monophasic fit of the combined replicates is shown. During the assay, samples were taken at 0.25, 0.5, 1, 2, 5, 10, 30, and 60 minutes. Gels were imaged with an Amersham Typhoon and quantified using the IQTL 8,2 software. Apparent first-order rate constants for non-target strand cleavage (kcleave) were determined for each Casx:sgRNA complex on each target. Rate constants for targets with non-TTC PAM were compared to the TIC PAM target to determine whether the relative preference for each PAM was altered for a given CasX variant. The results are shown in FIG. 73 (the monophasic fit of the combined replicates is shown) and Table 30. […]

B1: sgRNA 174.7.37 ; 7.37 TTC PAM target (ssRNA ; dsDNA)
RNA: ACUGGCGCUUUUAUCUGAUUACUUUGAGAGCCAUCACCAGCGACUAUGUCGUAGUGGGUAAAGCUCCCUCUUCGGAGGGAGCAUCAAAGGGCCGAGAUGUCUCGCUCCG
DNA 1: TGAAGCTGACAGCATTCGGGCCGAGATGTCTCGCTCCGTGGCCTTAGCTGTGCTCGCGCT
DNA 2: AGCGCGAGCACAGCTAAGGCCACGGAGCGAGACATCTCGGCCCGAATGCTGTCAGCTTCA
B1 gave an activity of 0.267 min⁻¹.
